This assay addresses U87MG. Briefly: flow cytometry, cell binding; human U87MG cells.

B1: NOD201M (Fc fusion)
chain: GCPRPRGDNPPLTCSQDSDCLAGCVCGPNGFCGEPRVPITQNPCPPLKECPPCAAPDLLGGPSVFIFPPKIKDVLMISLSPMVTCVVVDVSEDDPDVQISWFVNNVEVHTAQTQTHREDYNSTLRVVSALPIQHQDWMSGKEFKCKVNNRALPSPIEKTISKPRGPVRAPQVYVLPPPAEEMTKKEFSLTCMITGFLPAEIAVDWTSNGRTEQNYKNTATVLDSDGSYFMYSKLRVQKSTWERGSLFACSVVHEGLHNHLTTKTISRSLG
The Kd is the equilibrium constant for the complex coming apart. Read a low Kd as higher affinity. With B1, the Kd stood at 0.7 nM.
